Experimental data published in patent US20140087995A1 (published 2014).
Numbered stars: 1 amine (or outer) side, 2 acyl side, 3 side chain; on linkers, the order of the positions; unused ones are H or OH. Bridge positions count the residues as written; N and C are the ends. Side chains are listed from the residue outwards. Ends that are not written are not given here. * marks the point of attachment. C20 diacid = O=C(O)CCCCCCCCCCCCCCCCCCC(=O)*; γGlu = O=C(O)[C@H](CCC(=O)[*:2])N[*:1]

T1: human calcitonin receptor (human, UniProt P30988 25-474)
T1 construct: whole, on cells; Used as membranes prepared from a BHK tk'ts 13 cell line stably transfected with the human calcitonin receptor (Assay VII); also called hCTR; hCT
T1 sequence (looked up): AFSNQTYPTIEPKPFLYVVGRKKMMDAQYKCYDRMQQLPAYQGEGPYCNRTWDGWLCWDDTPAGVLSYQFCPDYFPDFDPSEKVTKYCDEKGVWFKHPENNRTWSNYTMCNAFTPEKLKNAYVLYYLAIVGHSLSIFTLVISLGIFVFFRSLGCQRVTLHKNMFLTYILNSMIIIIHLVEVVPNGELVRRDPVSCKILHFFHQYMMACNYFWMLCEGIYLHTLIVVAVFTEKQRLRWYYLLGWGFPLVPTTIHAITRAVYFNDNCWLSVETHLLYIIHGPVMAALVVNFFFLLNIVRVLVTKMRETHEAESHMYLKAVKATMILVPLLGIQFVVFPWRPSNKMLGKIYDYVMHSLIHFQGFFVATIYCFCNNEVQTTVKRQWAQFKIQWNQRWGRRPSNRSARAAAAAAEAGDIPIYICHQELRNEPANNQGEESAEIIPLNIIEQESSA

T2: rat calcitonin receptor (rat, UniProt P32214 25-516)
T2 construct: whole, on cells; Used as membranes prepared from BHK tk'ts 13 cells transiently transfected with the rat calcitonin receptor (Assay VIII); also called rCTR; rat calcitonin (a) receptor
T2 sequence (looked up): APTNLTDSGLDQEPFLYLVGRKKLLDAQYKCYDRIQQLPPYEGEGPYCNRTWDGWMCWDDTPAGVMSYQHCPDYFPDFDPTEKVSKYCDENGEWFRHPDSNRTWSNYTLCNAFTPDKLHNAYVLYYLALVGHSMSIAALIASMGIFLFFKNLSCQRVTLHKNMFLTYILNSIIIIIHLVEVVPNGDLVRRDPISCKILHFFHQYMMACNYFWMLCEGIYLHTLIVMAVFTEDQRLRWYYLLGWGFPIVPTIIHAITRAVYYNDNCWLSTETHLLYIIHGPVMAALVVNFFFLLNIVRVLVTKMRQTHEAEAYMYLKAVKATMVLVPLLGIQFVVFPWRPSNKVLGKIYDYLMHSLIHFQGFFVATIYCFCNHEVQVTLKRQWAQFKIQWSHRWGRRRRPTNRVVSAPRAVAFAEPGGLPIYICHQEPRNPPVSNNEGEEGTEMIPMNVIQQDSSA

T3: rat amylin receptor (rat calcitonin receptor + rat RAMP 3) (rat, UniProt P32214 25-516; Q9JJ73 23-147)
T3 construct: whole, on cells; Used as membranes prepared from BHK tk'ts 13 cells transiently transfected with rat calcitonin receptor and rat RAMP 3 (Assay VI); also called rAmylin-R; rat amylin 3(a) receptor
T3 sequence (looked up) 1: T2 sequence (looked up)
T3 sequence (looked up) 2: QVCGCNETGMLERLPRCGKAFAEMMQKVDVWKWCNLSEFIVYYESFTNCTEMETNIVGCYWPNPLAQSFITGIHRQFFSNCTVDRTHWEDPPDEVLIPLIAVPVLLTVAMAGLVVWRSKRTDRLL

B1: N^ε1-[(4S)-4-carboxy-4-(19-carboxynonadecanoylamino)butanoyl]-[His14,Arg17,Pro21,Pro27,His35]-h-amylin (peptide)
peptide: K([γGlu-C20 diacid])CNTATCATQRLAHFLRHSSPNFGAIPSSTNVGSHTY-NH2
modifications: disulfide 2-7; N-terminus assumed
SMILES: CC[C@H](C)[C@H](NC(=O)[C@H](C)NC(=O)CNC(=O)[C@H](Cc1ccccc1)NC(=O)[C@H](CC(N)=O)NC(=O)[C@@H]1CCCN1C(=O)[C@H](CO)NC(=O)[C@H](CO)NC(=O)[C@H](Cc1c[nH]cn1)NC(=O)[C@H](CCCNC(=N)N)NC(=O)[C@H](CC(C)C)NC(=O)[C@H](Cc1ccccc1)NC(=O)[C@H](Cc1c[nH]cn1)NC(=O)[C@H](C)NC(=O)[C@H](CC(C)C)NC(=O)[C@H](CCCNC(=N)N)NC(=O)[C@H](CCC(N)=O)NC(=O)[C@@H](NC(=O)[C@H](C)NC(=O)[C@@H]1CSSC[C@H](NC(=O)[C@@H](N)CCCCNC(=O)CC[C@H](NC(=O)CCCCCCCCCCCCCCCCCCC(=O)O)C(=O)O)C(=O)N[C@@H](CC(N)=O)C(=O)N[C@@H]([C@@H](C)O)C(=O)N[C@@H](C)C(=O)N[C@@H]([C@@H](C)O)C(=O)N1)[C@@H](C)O)C(=O)N1CCC[C@H]1C(=O)N[C@@H](CO)C(=O)N[C@@H](CO)C(=O)N[C@H](C(=O)N[C@@H](CC(N)=O)C(=O)N[C@H](C(=O)NCC(=O)N[C@@H](CO)C(=O)N[C@@H](Cc1c[nH]cn1)C(=O)N[C@H](C(=O)N[C@@H](Cc1ccc(O)cc1)C(N)=O)[C@@H](C)O)C(C)C)[C@@H](C)O
notes: Analogue of human amylin; also called compound 66
B2: N^ε21-[(4S)-4-carboxy-4-[[(4S)-4-carboxy-4-(19-carboxynonadecanoylamino)butanoyl]amino]butanoyl]-[Asp14,Arg17,Lys21,Pro27,Asp35]-h-amylin (peptide)
peptide: KCNTATCATQRLADFLRHSSK([γGlu-γGlu-C20 diacid])NFGAIPSSTNVGSDTY-NH2
modifications: disulfide 2-7; N-terminus assumed
SMILES: CC[C@H](C)[C@H](NC(=O)[C@H](C)NC(=O)CNC(=O)[C@H](Cc1ccccc1)NC(=O)[C@H](CC(N)=O)NC(=O)[C@H](CCCCNC(=O)CC[C@H](NC(=O)CC[C@H](NC(=O)CCCCCCCCCCCCCCCCCCC(=O)O)C(=O)O)C(=O)O)NC(=O)[C@H](CO)NC(=O)[C@H](CO)NC(=O)[C@H](Cc1c[nH]cn1)NC(=O)[C@H](CCCNC(=N)N)NC(=O)[C@H](CC(C)C)NC(=O)[C@H](Cc1ccccc1)NC(=O)[C@H](CC(=O)O)NC(=O)[C@H](C)NC(=O)[C@H](CC(C)C)NC(=O)[C@H](CCCNC(=N)N)NC(=O)[C@H](CCC(N)=O)NC(=O)[C@@H](NC(=O)[C@H](C)NC(=O)[C@@H]1CSSC[C@H](NC(=O)[C@@H](N)CCCCN)C(=O)N[C@@H](CC(N)=O)C(=O)N[C@@H]([C@@H](C)O)C(=O)N[C@@H](C)C(=O)N[C@@H]([C@@H](C)O)C(=O)N1)[C@@H](C)O)C(=O)N1CCC[C@H]1C(=O)N[C@@H](CO)C(=O)N[C@@H](CO)C(=O)N[C@H](C(=O)N[C@@H](CC(N)=O)C(=O)N[C@H](C(=O)NCC(=O)N[C@@H](CO)C(=O)N[C@@H](CC(=O)O)C(=O)N[C@H](C(=O)N[C@@H](Cc1ccc(O)cc1)C(N)=O)[C@@H](C)O)C(C)C)[C@@H](C)O
notes: Analogue of human amylin; also called compound 59
B3: N^ε1N^ε1-[(4S)-4-carboxy-4-(19-carboxynonadecanoylamino)butanoyl]-[His14,Arg17,Pro21,Pro27,Pro34]-h-amylin (peptide)
peptide: K([γGlu-C20 diacid])CNTATCATQRLAHFLRHSSPNFGAIPSSTNVGPNTY-NH2
modifications: disulfide 2-7; N-terminus assumed
SMILES: CC[C@H](C)[C@H](NC(=O)[C@H](C)NC(=O)CNC(=O)[C@H](Cc1ccccc1)NC(=O)[C@H](CC(N)=O)NC(=O)[C@@H]1CCCN1C(=O)[C@H](CO)NC(=O)[C@H](CO)NC(=O)[C@H](Cc1c[nH]cn1)NC(=O)[C@H](CCCNC(=N)N)NC(=O)[C@H](CC(C)C)NC(=O)[C@H](Cc1ccccc1)NC(=O)[C@H](Cc1c[nH]cn1)NC(=O)[C@H](C)NC(=O)[C@H](CC(C)C)NC(=O)[C@H](CCCNC(=N)N)NC(=O)[C@H](CCC(N)=O)NC(=O)[C@@H](NC(=O)[C@H](C)NC(=O)[C@@H]1CSSC[C@H](NC(=O)[C@@H](N)CCCCNC(=O)CC[C@H](NC(=O)CCCCCCCCCCCCCCCCCCC(=O)O)C(=O)O)C(=O)N[C@@H](CC(N)=O)C(=O)N[C@@H]([C@@H](C)O)C(=O)N[C@@H](C)C(=O)N[C@@H]([C@@H](C)O)C(=O)N1)[C@@H](C)O)C(=O)N1CCC[C@H]1C(=O)N[C@@H](CO)C(=O)N[C@@H](CO)C(=O)N[C@H](C(=O)N[C@@H](CC(N)=O)C(=O)N[C@H](C(=O)NCC(=O)N1CCC[C@H]1C(=O)N[C@@H](CC(N)=O)C(=O)N[C@H](C(=O)N[C@@H](Cc1ccc(O)cc1)C(N)=O)[C@@H](C)O)C(C)C)[C@@H](C)O
notes: Analogue of human amylin; also called compound 67
B4: N^ε1-[(4S)-4-carboxy-4-(19-carboxynonadecanoylamino)butanoyl]-[His14,Arg17,Pro21,Pro27,Pro31]-h-amylin (peptide)
peptide: K([γGlu-C20 diacid])CNTATCATQRLAHFLRHSSPNFGAIPSSTPVGSNTY-NH2
modifications: disulfide 2-7; N-terminus assumed
SMILES: CC[C@H](C)[C@H](NC(=O)[C@H](C)NC(=O)CNC(=O)[C@H](Cc1ccccc1)NC(=O)[C@H](CC(N)=O)NC(=O)[C@@H]1CCCN1C(=O)[C@H](CO)NC(=O)[C@H](CO)NC(=O)[C@H](Cc1c[nH]cn1)NC(=O)[C@H](CCCNC(=N)N)NC(=O)[C@H](CC(C)C)NC(=O)[C@H](Cc1ccccc1)NC(=O)[C@H](Cc1c[nH]cn1)NC(=O)[C@H](C)NC(=O)[C@H](CC(C)C)NC(=O)[C@H](CCCNC(=N)N)NC(=O)[C@H](CCC(N)=O)NC(=O)[C@@H](NC(=O)[C@H](C)NC(=O)[C@@H]1CSSC[C@H](NC(=O)[C@@H](N)CCCCNC(=O)CC[C@H](NC(=O)CCCCCCCCCCCCCCCCCCC(=O)O)C(=O)O)C(=O)N[C@@H](CC(N)=O)C(=O)N[C@@H]([C@@H](C)O)C(=O)N[C@@H](C)C(=O)N[C@@H]([C@@H](C)O)C(=O)N1)[C@@H](C)O)C(=O)N1CCC[C@H]1C(=O)N[C@@H](CO)C(=O)N[C@@H](CO)C(=O)N[C@H](C(=O)N1CCC[C@H]1C(=O)N[C@H](C(=O)NCC(=O)N[C@@H](CO)C(=O)N[C@@H](CC(N)=O)C(=O)N[C@H](C(=O)N[C@@H](Cc1ccc(O)cc1)C(N)=O)[C@@H](C)O)C(C)C)[C@@H](C)O
notes: Analogue of human amylin; also called compound 62
B5: N^ε1-[(4S)-4-carboxy-4-(19-carboxynonadecanoylamino)butanoyl]-[His14,Arg17,Pro21,Pro27]-h-amylin (peptide)
peptide: K([γGlu-C20 diacid])CNTATCATQRLAHFLRHSSPNFGAIPSSTNVGSNTY-NH2
modifications: disulfide 2-7; N-terminus assumed
SMILES: CC[C@H](C)[C@H](NC(=O)[C@H](C)NC(=O)CNC(=O)[C@H](Cc1ccccc1)NC(=O)[C@H](CC(N)=O)NC(=O)[C@@H]1CCCN1C(=O)[C@H](CO)NC(=O)[C@H](CO)NC(=O)[C@H](Cc1c[nH]cn1)NC(=O)[C@H](CCCNC(=N)N)NC(=O)[C@H](CC(C)C)NC(=O)[C@H](Cc1ccccc1)NC(=O)[C@H](Cc1c[nH]cn1)NC(=O)[C@H](C)NC(=O)[C@H](CC(C)C)NC(=O)[C@H](CCCNC(=N)N)NC(=O)[C@H](CCC(N)=O)NC(=O)[C@@H](NC(=O)[C@H](C)NC(=O)[C@@H]1CSSC[C@H](NC(=O)[C@@H](N)CCCCNC(=O)CC[C@H](NC(=O)CCCCCCCCCCCCCCCCCCC(=O)O)C(=O)O)C(=O)N[C@@H](CC(N)=O)C(=O)N[C@@H]([C@@H](C)O)C(=O)N[C@@H](C)C(=O)N[C@@H]([C@@H](C)O)C(=O)N1)[C@@H](C)O)C(=O)N1CCC[C@H]1C(=O)N[C@@H](CO)C(=O)N[C@@H](CO)C(=O)N[C@H](C(=O)N[C@@H](CC(N)=O)C(=O)N[C@H](C(=O)NCC(=O)N[C@@H](CO)C(=O)N[C@@H](CC(N)=O)C(=O)N[C@H](C(=O)N[C@@H](Cc1ccc(O)cc1)C(N)=O)[C@@H](C)O)C(C)C)[C@@H](C)O
notes: Analogue of human amylin; also called compound 70

molecular target: T1, human calcitonin receptor; assay: IC50 on human CTR divided by IC50 on human amylin receptor (Assays VII/V)
In short: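 IC₅₀ values were derived by one-site competition analysis of SPA counts. Cell membranes (35 ng/μL) with SPA beads were incubated with test compounds for 120 min at 25° C in Hepes buffer, pH 7.4, containing CaCl2, MgCl₂, OA and Tween20.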

| Binder | Ratio hCT/hAmylin binding |
| --- | --- |
| B1 | 45.5 |
| B2 | 4.3 |
| B3 | 51.6 |
| B4 | 63 |
| B5 | 60.8 |

molecular target: T2, rat calcitonin receptor; assay: SPA competition with 125I-calcitonin, membranes of BHK cells with rat CTR (Assay VIII)

| Binder | IC50 |
| --- | --- |
| B1 | 20.8 nM |
| B2 | 18.8 nM |
| B3 | 14.7 nM |
| B4 | 18 nM |
| B5 | 34.2 nM |

molecular target: T3, rat amylin receptor (rat calcitonin …); assay: SPA competition with 125I-rat amylin, membranes of BHK cells with rat CTR + rat RAMP3 (Assay VI)

| Binder | IC50 |
| --- | --- |
| B1 | 0.581 nM |
| B2 | 0.659 nM |
| B3 | 0.172 nM |
| B4 | 0.42 nM |
| B5 | 0.355 nM |

molecular target: T2, rat calcitonin receptor; assay: IC50 on rat CTR divided by IC50 on rat amylin receptor (Assays VIII/VI)

| Binder | Ratio rCT/rAmylin binding |
| --- | --- |
| B1 | 35.8 |
| B2 | 28.5 |
| B3 | 85.4 |
| B4 | 42.8 |
| B5 | 96.5 |
